Measured values as given in paper doi:10.1101/2025.02.04.635266.

Target: IgG1-DNP-E430G (human)
Experiment: single molecule force spectroscopy

koff: 1.8 s⁻¹
Substance: DNP-unspecific IgG1-E430G (tip-linked) (antibody)
